This is an account of results in patent US20140248638A1 (BAXALTA, published 2014).

This assay deals with T1, human oxMIF (oxidized macrophage migration inhibitory factor) (human, UniProt P14174 2-115, oxidized isoform: made by mild oxidation (cystine, GSSG) or by 0.2% Proclin300 or protein crosslinkers (e.g. BMOE); the modified residues are not stated).
T1 construct: mature; a conformational/redox isoform; also called oxidized MIF; recombinant human oxMIF
Description: sandwich ELISA, plate coated with RAM0, human EDTA plasma; calibrated with recombinant human MIF in 0.2% ProClin300. For orientation: In an ELISA, binding on a coated surface is turned into a signal by an enzyme label.

T1 sequence (P14174 2-115): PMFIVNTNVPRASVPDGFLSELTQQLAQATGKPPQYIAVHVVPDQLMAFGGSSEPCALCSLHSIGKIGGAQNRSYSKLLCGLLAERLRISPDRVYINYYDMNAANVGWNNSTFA

B1: human anti-MIF monoclonal antibody RAM0 (antibody, human IgG1, kappa, V domains shown)
VH: EVQLLESGGGLVQPGGSLRLSCAASGFTFSWYAMDWVRQAPGKGLEWVSGIYPSGGRTKYADSVKGRFTISRDNSKNTLYLQMNSLRAEDTAVYYCARVNVIAVAGTGYYYYGMDVWGQGTTVTVSS
VL: DIQMTQSPGTLSLSPGERATLSCRASQGVSSSSLAWYQQKPGQAPRLLIYGTSSRATGIPDRFSGSASGTDFTLTISRLQPEDFAVYYCQQYGRSLTFGGGTKVEIKR
notes: Deposits DSM 25864 and DSM 25863
For B1, the binding result is “binds”.
